The subject of data set [1] is ED1+ and ED2+ synovial macrophages. Nature of the data set: Synovial macrophage infiltration (ED1/ED2 immunohistochemistry) in knees of rats with mBSA antigen-induced arthritis. Format: in vivo, rat. As to the method:
(§1) Experiments were performed using a rat model for RA as published by Chandruputla et al. (BioMed Int, 2015) to show the effects of recombinant human alkaline phosphatase (hRESCAP) on RA. hRESCAP was compared with MTX used as a positive control. The antigen-induced rat model uses two subcutaneous immunizations with a mixture of methylated bovine serum albumin (mBSA), CFA (complete Freund's adjuvant antigen) and CBP (custom Bordetella pertussis antigen) and intra-articular injections of mBSA on one side knee and saline (negative control) on the counter knee. Immunohistochemical (IHC) analysis specifically focussed on infiltration with macrophages and knee swelling is followed over time after therapeutic treatment with MTX, or hRESCAP.
(§2) In the rat model, RA is induced in the right knee (RA knee), the contralateral left knee serves as a internal control (control knee). The model allows various options for therapeutic interventions, either before intra-articular injections or during boosts injections with mBSA. Two hours prior to AP administration, rats received a dose of levamisole (50 mg/kg, s.c.). For comparison, arthritic rats received treatment with methotrexate (1 mg/kg, i.p.).
At the end of the experiment, rats were sacrificed and knees were decalcified and processed for IHC analysis of synovial macrophage infiltration, including 2 rat macrophage antibodies; ED1 (homolog of human CD68) and ED2 (homolog of human CD163, a proposed marker for human M2 anti-inflammatory macrophages). IHC analysis of ED1 and ED2 macrophages was performed in multiple quadrants of synovial tissue, as described by Chandruputla et al (BioMed Int, 2015). Macrophage counting included synovial lining layer (SL 1-10) and synovial sublining layers (SL 1-20).
(§3) All rats (except healthy) were immunized and arthritis was induced via 1× or 4× intra-articular (i.a) mBSA injections, 4 or 5 days apart in the arthritic (right) knee, the contralateral (left, non-arthritic) knee serving as control knee. For therapeutic interventions, AP (human recombinant placenta AP, TNO, Zeist, The Netherlands) was administered subcutaneously (s.c.) at a dose of 700 U/kg (≈200 μg), MTX (VU University Medical Centers' Pharmacy) was administered intra-peritoneal (i.p.) at two dosages: 0.3 mg/kg (low dose) and 1.0 mg/kg (high dose). The rats were divided in 8 groups, based on different treatments and treatment schedules. In a prophylactic setting, two rats received AP twice prior to intra-articular (i.a.) arthritis induction and four rats received AP twice prior to intra-articular and 4× PBS in between i.a. injections. In the treatment groups, arthritic rats were administered AP twice or 4× after arthritis induction, either as standalone therapy or in combination with low or high dose MTX. Control rats received 500 μL of PBS (i.p.). […] At the end of study, all rats were sacrificed and tissues were excised for further processing and various analyses.
The arthritic and contralateral knees from all rats were dissected in toto and fixed for 7 days at 4° C. in 10% freshly made paraformaldehyde in PBS with 2% sucrose (pH=7.3) prior to decalcification in osteosoft (101728, Merck, Germany) for ˜2.5 weeks at room temperature. Thereafter, knees were embedded in paraffin. Sections of 5 μm were cut through the centre of the joint in longitudinal direction and stained with haematoxylin and eosin (HE) to assess the degree of inflammation in synovial tissue. Liver and spleen sections from all rats were dissected and fixed in 4% paraformaldehyde for 24 h before embedding in paraffin. Sections of 5 μm were cut and stained initially with HE and then for macrophages Staining for macrophages with ED1 (homologous to human CD68), and ED2 (homologous to human CD163, a marker for M2 anti-inflammatory macrophages), or isotype control antibody was performed. Images were captured using a Leica 4000B microscope and Leica digital camera DC500 (Microsystems B. V. Rijswijk, The Netherlands). […]

The subject of data set [2] is arthritic rats. Kind of data set: Knee swelling in rats with mBSA antigen-induced arthritis. The data set is classed as in vivo, rat. As to the method: as §1, §2, §3
Data set [3] concerns macrophages. Kind of data set: [^18F]fluoro-PEG-folate macrophage PET-CT imaging of arthritic knees. Format: in vivo. To be noted: PET scan at day 40; one rat per group. The text has this:
The macrophage PET tracer [^18F]fluoro-PEG-folate was synthesized, with a radiochemical purity of >96.5% and mean specific activity of 27.6±3.5 GBq/μmol. Untreated and 4× AP-treated arthritic were anesthetized using inhalation anaesthetics (isoflurane 2-2.5% and oxygen […]). The tail vein was cannulated with a poly-urethane 3 French cannula (0.7 mm×19 mm, BD Angiocath, Breda, The Netherlands). During PET-CT (Mediso nanoPET-CT, Budapest, Hungary) rats were place in an integrated heating bed (˜35° C.) while monitoring respiratory function. Computed tomography (CT) scan was performed for 5 min, followed by tracer administration (10.7±1.8 MBq) at the start of a dynamic PET scan of 60 min. PET data were normalized, and corrected for scatter, randoms, attenuation, decay and dead time. The list mode PET data were rebinned in 19 successive frames (4×5, 4×10, 2×30, 3×60, 2×300, 3×600 and 1×900 s), which were reconstructed using an iterative 3D Poisson ordered-subsets expectation-maximization algorithm with 4 iterations and 6 subsets. […] The CT and PET images were superimposed for drawing the regions of interest (ROI). […] TACs were expressed as standardized uptake values (SUV), i.e. mean ROI radioactivity concentration normalized to injected dose and body weight.

For data set [4], the system named is macrophages.
Description: At the end of the treatment period, arthritic rats receiving 4× AP, 4× AP/low dose MTX, 4× AP/high dose MTX treatment, and untreated rats, were administered with [^18F]fluoro-PEG-folate tracer. Sixty minutes after tracer administration, rats were sacrificed. Low and high dose MTX treated arthritic rats were sacrificed without tracer administration. Upon sacrificing, all rats were excised and knees, blood and various internal organs were collected, rinsed, dipped dry, weighed and the amount of radioactivity determined using an LKB 1282 Compugamma CS gamma counter (LKB, Wallac, Turku, Finland). Results for tracer uptake in the various tissues were expressed as percentage of the injected dose per gram tissue (%ID/g).
The conditions of data set [5]: rats; cited from earlier work.
[6] abbreviates: 2× AP administration followed by 4× PBS, p<0.01.
[7] abbreviates: prophylactic AP treatment, 2× AP before intra-articular antigen injection.
Where [8] appears, read: prophylactic: 2× AP (700 U/kg) prior to intra-articular mBSA injection, p<0.01.
Setting [9] is: 4x AP, 60 min post tracer injection.
Where [10] appears, read: arthritic rats, 60 min after tracer.

“Also recorded” adds a separate entry of the source.

B1: AP: human recombinant placenta alkaline phosphatase (hRESCAP; TNO, Zeist), an ectophosphatase (protein, UniProt P05187 23-506, looked up)
Alkaline phosphatase, …: IIPVEEENPDFWNREAAEALGAAKKLQPAQTAAKNLIIFLGDGMGVSTVTAARILKGQKKDKLGPEIPLAMDRFPYVALSKTYNVDKHVPDSGATATAYLCGVKGNFQTIGLSAAARFNQCNTTRGNEVISVMNRAKKAGKSVGVVTTTRVQHASPAGTYAHTVNRNWYSDADVPASARQEGCQDIATQLISNMDIDVILGGGRKYMFRMGTPDPEYPDDYSQGGTRLDGKNLVQEWLAKRQGARYVWNRTELMQASLDPSVTHLMGLFEPGDMKYEIHRDSTLDPSLMEMTEAALRLLSRNPRGFFLFVEGGRIDHGHHESRAYRALTETIMFDDAIERAGQLTSEEDTLSLVTADHSHVFSFGGYPLRGSSIFGLAPGKARDRKAYTVLLYGNGPGYVLKDGARPDVTESESGSPEYRQQSAVPLDEETHAGEDVAVFARGPQAHLVHGVQEQTFIAHVMAFAACLEPYTACDLAPPAGTTD
On to B1, for which, in data set [1] (setting [6]), the “reduction of synovial ED1+ macrophage infiltration in arthritic knees” value came to 2 fold and the “reduction of synovial ED2+ macrophage infiltration in arthritic knees” value was found to be 3 fold. Moreover, in data set [1] (setting [7]), the “ED1+ synovial macrophage infiltration in arthritic knee (in words)” value is given as “mild infiltration; also recorded: very much reduced; also recorded: markedly reduced infiltration” and the “ED2+ synovial macrophages in arthritic knee (in words)” value is reported as “do not show this activity; also recorded: markedly reduced infiltration”. Moreover, in data set [1] (setting [8]), the “lower quantification of ED1+ macrophages in arthritic knees compared to untreated rats (1× i.a.)” value is recorded as 4 fold and the “lower quantification of ED2+ macrophages in arthritic knees compared to untreated rats (1× i.a.)” value is 8 fold. Also, the “further reduction of ED1+ and ED2+ macrophage counts in arthritic knees” value in data set [1] (therapeutic setting, 4× AP administration) is roughly 8 fold. Moreover, the “ED2+ synovial macrophages in arthritic knee (in words)” value in data set [1] (therapeutic treatment, 4× AP after first i.a. and in between boosts) was “much reduced”. In addition, the “ED1+ synovial macrophage infiltration in arthritic knee (in words)” value in data set [1] (therapeutic treatment, 4× after first i.a. and in between boosts, AP 700 U/kg, MTX 1 mg/kg) is “reduces ED1+ infiltration; also recorded: very much reduced”. In addition, the “swelling of the mBSA-injected right knee” value in data set [2] (prophylactic and therapeutic AP treatment or MTX treatment, versus positive control) is “Reduced swelling”. Moreover, the “swelling of the non-treated left knee” value in data set [2] (versus positive control treatment) was “swelling is reduced”. The “increased [^18F]fluoro-PEG-folate uptake (SUV) in arthritic knee of the untreated rat compared to the 4× AP-treated rat” value in data set [3] was determined as 1.5 fold. Further, in data set [4] (setting [9]), the “[^18F]fluoro-PEG-folate uptake, Heart, Avg” value came out at 0.117 % ID/g; the “[^18F]fluoro-PEG-folate uptake, Liver, Avg” value came out at 0.151 % ID/g; the “[^18F]fluoro-PEG-folate uptake, Lung, Avg” value is 0.111 % ID/g; the “[^18F]fluoro-PEG-folate uptake, Spleen, Avg” value is given as 0.779 % ID/g. Also, in data set [4] (setting [10]), the “[^18F]fluoro-PEG-folate uptake in kidney and intestine (in words)” value was “not impacted”; the “[^18F]fluoro-PEG-folate uptake in lung, heart, liver and spleen (in words)” value is recorded as “reductions”. Also, the half life time entry in data set [5] is reported as “≈ 3 days”.

The values are drawn from patent US11103562B2, “Composition comprising alkaline phosphatase for use in the treatment of arthritides” (AMRIF BV, priority 2017, dated 2021).
